The text below walks through data of the Human Domainome abundance scans (Beltran et al. 2025).

± gives the uncertainty stated by the source.

B1: Homeobox protein cut-like 2, residues 895 to 963; numbered along this chain, O14529 (parent)
chain: EVDTLELTRQVKEKLAKNGICQRIFGEKVLGLSQGSVSDMLSRPKPWSKLTQKGREPFIRMQLWLSDQL

The variants in this data set derive from B1. Kind of data set: abundance fitness (aPCA) (normalised: wild type 0, dead -1); higher = more abundant; growth selection in yeast, the domain comes from the species named. The conditions noted are these: Homo sapiens.
Regarding EVDTLELTRQVKEKLAKNGICQRIFGEKVLGLSQGSVSDMLSRPKPWSKLTQKGREPFISMQLWLSDQL, the abundance fitness is -0.396 ± 0.034.
Next, EVDTLELTRQVKEKLAKNGICQRYFGEKVLGLSQGSVSDMLSRPKPWSKLTQKGREPFIRMQLWLSDQL: 0.097 ± 0.059; EVDTLELNRQVKEKLAKNGICQRIFGEKVLGLSQGSVSDMLSRPKPWSKLTQKGREPFIRMQLWLSDQL: -0.158 ± 0.058; EVDTLELTRQVKEKLAKNGICQRIFGEKVLGLSQGSVSDMLSRPKPWIKLTQKGREPFIRMQLWLSDQL: -0.223 ± 0.047.
To EVDTLELTRQVKEKLAKNGICQRIFGEKVLGLSQGSVSDMLSRPKPWRKLTQKGREPFIRMQLWLSDQL belongs -0.13 ± 0.05; to EVDTLELTRQVKEALAKNGICQRIFGEKVLGLSQGSVSDMLSRPKPWSKLTQKGREPFIRMQLWLSDQL, -0.064 ± 0.075; to EVDTLELTRQVKEKLAKNGICQRIFGEKVLGLSQYSVSDMLSRPKPWSKLTQKGREPFIRMQLWLSDQL, -0.125 ± 0.043.
Next, EVDTLELTRQVKEKLAKNGICQRIFGEKVLGLSQNSVSDMLSRPKPWSKLTQKGREPFIRMQLWLSDQL: 0.044 ± 0.088; EVDTLELTRQVKEKLAKNGICQRIFGEKVLGLSQGSRSDMLSRPKPWSKLTQKGREPFIRMQLWLSDQL: -0.223 ± 0.032.
As for EVDTLELTRQVKEKLAKNGICQRIFGEKVLGLSQGSSSDMLSRPKPWSKLTQKGREPFIRMQLWLSDQL, the abundance fitness was -0.232 ± 0.032.
Next, EVDTLELTRQVKEKLAKNGICQRIFGEKVLGLSQGSFSDMLSRPKPWSKLTQKGREPFIRMQLWLSDQL: 0.01 ± 0.042; EVDTLELTRQVKEKLAKNGICQRIFGEKVLGLSQGSYSDMLSRPKPWSKLTQKGREPFIRMQLWLSDQL: -0.257 ± 0.06; EVDTLELTRQVKEKLAKNGICQRIFGEKVLGLSQGSMSDMLSRPKPWSKLTQKGREPFIRMQLWLSDQL: -0.227 ± 0.051.
To EVDTLELTRQVKEKLAKNGICQRISGEKVLGLSQGSVSDMLSRPKPWSKLTQKGREPFIRMQLWLSDQL belongs -0.721 ± 0.061; to EVDTLELTRQVKEKLAKNGICQRIFGEKVLGLSQGSVSDMLSRPKPWSKLTQKGREPFIRMYLWLSDQL, -0.278 ± 0.17.
In the case of EVDTLELTRQVKEKLAKNGINQRIFGEKVLGLSQGSVSDMLSRPKPWSKLTQKGREPFIRMQLWLSDQL, the abundance fitness stood at 0.015 ± 0.088.
To EVDTLELTRQVKEKLAKNGICQRIFGEKVLGLSQGSVSDMLSRPKPWSKLTQKGREPFIRMQLWLSDSL belongs -0.097 ± 0.061; to EVDTLELTRQVKEKLAKNGICQRIFGEKVLGLSQGSVSDMLSRPKPWSKLTQKGREPFIRMQLWLSDML, -0.022 ± 0.034.
As to EVDTLELTRQVKEKLAKNGICQRIFGEKVLGLSQGSVSDMLSRPKPWSKLTQKGREPFIRMQLWLSDRL, the abundance fitness is -0.057 ± 0.044.
Next, EVDTLELTRQVKEKLAKNGICQRIFGEKVLGLSQGSVSDMLSRPKPWSKLTQKGREPFIRMQLWLDDQL: 0.094 ± 0.24; EVDTLELTRQVKEKLAKNGICQRIFGEKVLGLSQGSVSDMLSRPDPWSKLTQKGREPFIRMQLWLSDQL: -0.108 ± 0.068; EVDTLELTRQVKEKWAKNGICQRIFGEKVLGLSQGSVSDMLSRPKPWSKLTQKGREPFIRMQLWLSDQL: -0.338 ± 0.034.
Consider EVDTLELTRQVKEKMAKNGICQRIFGEKVLGLSQGSVSDMLSRPKPWSKLTQKGREPFIRMQLWLSDQL, for which the abundance fitness turned out to be 0.053 ± 0.034.
With EVDTLELTMQVKEKLAKNGICQRIFGEKVLGLSQGSVSDMLSRPKPWSKLTQKGREPFIRMQLWLSDQL, the abundance fitness was found to be 0.006 ± 0.036.
Next, EVDTLELTRQVKEKLAKNGICQRIFGEKVLGLSQGSVSDMLSRPKPWSKLTQKGREPFYRMQLWLSDQL: -0.059 ± 0.059; EVDTLELTRQVKEKLAKNGICQRIFGEKVLGLSQGSVSDMLFRPKPWSKLTQKGREPFIRMQLWLSDQL: -0.167 ± 0.031; EVDTLELTRQVKEKLAKNGICQRIFGEKVLGLSQGSVSDMLERPKPWSKLTQKGREPFIRMQLWLSDQL: 0.059 ± 0.095.
To EVDTLELTRQVKEKLQKNGICQRIFGEKVLGLSQGSVSDMLSRPKPWSKLTQKGREPFIRMQLWLSDQL belongs -0.063 ± 0.044.
In the case of EVDTLELTRQEKEKLAKNGICQRIFGEKVLGLSQGSVSDMLSRPKPWSKLTQKGREPFIRMQLWLSDQL, the abundance fitness was -0.192 ± 0.039.
To EVDTLELTRQVKEKLAKNGICQRIFGEKVLGLSQGSVSDMLSRPKPWSKLTQKGREPFIRMQLWLSSQL belongs -0.082 ± 0.042.
Consider EVDTLELTRKVKEKLAKNGICQRIFGEKVLGLSQGSVSDMLSRPKPWSKLTQKGREPFIRMQLWLSDQL, for which the abundance fitness came out at 0.07 ± 0.036.
To EVDTLELTRAVKEKLAKNGICQRIFGEKVLGLSQGSVSDMLSRPKPWSKLTQKGREPFIRMQLWLSDQL belongs -0.23 ± 0.092; to EVDTLELTRQVKEKLAKNGICQRIFGEKVLGLSQGSVSDMLSWPKPWSKLTQKGREPFIRMQLWLSDQL, -0.191 ± 0.049; to EVDTLELTRQVKEKLAKNGICQRIFGEKVLGLSQGSVSDMLSFPKPWSKLTQKGREPFIRMQLWLSDQL, -0.101 ± 0.061.
To EVDTLELTRQVKEKLAKNGICQRIFGEKVLGLSQGSVSDMLSEPKPWSKLTQKGREPFIRMQLWLSDQL belongs -0.124 ± 0.071; to EVDTLELTRQVKEKLAKNGICQRIFGEKVLGLSQGSVSDMLSTPKPWSKLTQKGREPFIRMQLWLSDQL, -0.162 ± 0.036.
To EVDTLELTRQVKEKLAKNGICVRIFGEKVLGLSQGSVSDMLSRPKPWSKLTQKGREPFIRMQLWLSDQL belongs -0.116 ± 0.041; to EVDTLELTRQVKEKLAKNGICQRIFGEKVLGLSQGSVSDMLSRPKPWSTLTQKGREPFIRMQLWLSDQL, -0.035 ± 0.033; to EVDTLELTRQVKEKLAKNGICQRIFGEKVLGLSQGSVSDMLSRPKPWSKLTQKGREPFIRCQLWLSDQL, -0.292 ± 0.054.
